Two molecules from publication doi:10.1101/2021.02.25.432866 (bioRxiv, 2021) can be followed below.

Series [1] addresses mutant Huntingtin exon 1 fragment with Q71, unlabelled (Q71). Description: FRET or BRET.
The series “FRET or BRET” concerns the molecule itself. Description: FRET or BRET.

Sequence of mutant Huntingtin exon 1 fragment with Q71, unlabelled (Q71) (P42858 whole entry, change not shown, the tested form may be a part): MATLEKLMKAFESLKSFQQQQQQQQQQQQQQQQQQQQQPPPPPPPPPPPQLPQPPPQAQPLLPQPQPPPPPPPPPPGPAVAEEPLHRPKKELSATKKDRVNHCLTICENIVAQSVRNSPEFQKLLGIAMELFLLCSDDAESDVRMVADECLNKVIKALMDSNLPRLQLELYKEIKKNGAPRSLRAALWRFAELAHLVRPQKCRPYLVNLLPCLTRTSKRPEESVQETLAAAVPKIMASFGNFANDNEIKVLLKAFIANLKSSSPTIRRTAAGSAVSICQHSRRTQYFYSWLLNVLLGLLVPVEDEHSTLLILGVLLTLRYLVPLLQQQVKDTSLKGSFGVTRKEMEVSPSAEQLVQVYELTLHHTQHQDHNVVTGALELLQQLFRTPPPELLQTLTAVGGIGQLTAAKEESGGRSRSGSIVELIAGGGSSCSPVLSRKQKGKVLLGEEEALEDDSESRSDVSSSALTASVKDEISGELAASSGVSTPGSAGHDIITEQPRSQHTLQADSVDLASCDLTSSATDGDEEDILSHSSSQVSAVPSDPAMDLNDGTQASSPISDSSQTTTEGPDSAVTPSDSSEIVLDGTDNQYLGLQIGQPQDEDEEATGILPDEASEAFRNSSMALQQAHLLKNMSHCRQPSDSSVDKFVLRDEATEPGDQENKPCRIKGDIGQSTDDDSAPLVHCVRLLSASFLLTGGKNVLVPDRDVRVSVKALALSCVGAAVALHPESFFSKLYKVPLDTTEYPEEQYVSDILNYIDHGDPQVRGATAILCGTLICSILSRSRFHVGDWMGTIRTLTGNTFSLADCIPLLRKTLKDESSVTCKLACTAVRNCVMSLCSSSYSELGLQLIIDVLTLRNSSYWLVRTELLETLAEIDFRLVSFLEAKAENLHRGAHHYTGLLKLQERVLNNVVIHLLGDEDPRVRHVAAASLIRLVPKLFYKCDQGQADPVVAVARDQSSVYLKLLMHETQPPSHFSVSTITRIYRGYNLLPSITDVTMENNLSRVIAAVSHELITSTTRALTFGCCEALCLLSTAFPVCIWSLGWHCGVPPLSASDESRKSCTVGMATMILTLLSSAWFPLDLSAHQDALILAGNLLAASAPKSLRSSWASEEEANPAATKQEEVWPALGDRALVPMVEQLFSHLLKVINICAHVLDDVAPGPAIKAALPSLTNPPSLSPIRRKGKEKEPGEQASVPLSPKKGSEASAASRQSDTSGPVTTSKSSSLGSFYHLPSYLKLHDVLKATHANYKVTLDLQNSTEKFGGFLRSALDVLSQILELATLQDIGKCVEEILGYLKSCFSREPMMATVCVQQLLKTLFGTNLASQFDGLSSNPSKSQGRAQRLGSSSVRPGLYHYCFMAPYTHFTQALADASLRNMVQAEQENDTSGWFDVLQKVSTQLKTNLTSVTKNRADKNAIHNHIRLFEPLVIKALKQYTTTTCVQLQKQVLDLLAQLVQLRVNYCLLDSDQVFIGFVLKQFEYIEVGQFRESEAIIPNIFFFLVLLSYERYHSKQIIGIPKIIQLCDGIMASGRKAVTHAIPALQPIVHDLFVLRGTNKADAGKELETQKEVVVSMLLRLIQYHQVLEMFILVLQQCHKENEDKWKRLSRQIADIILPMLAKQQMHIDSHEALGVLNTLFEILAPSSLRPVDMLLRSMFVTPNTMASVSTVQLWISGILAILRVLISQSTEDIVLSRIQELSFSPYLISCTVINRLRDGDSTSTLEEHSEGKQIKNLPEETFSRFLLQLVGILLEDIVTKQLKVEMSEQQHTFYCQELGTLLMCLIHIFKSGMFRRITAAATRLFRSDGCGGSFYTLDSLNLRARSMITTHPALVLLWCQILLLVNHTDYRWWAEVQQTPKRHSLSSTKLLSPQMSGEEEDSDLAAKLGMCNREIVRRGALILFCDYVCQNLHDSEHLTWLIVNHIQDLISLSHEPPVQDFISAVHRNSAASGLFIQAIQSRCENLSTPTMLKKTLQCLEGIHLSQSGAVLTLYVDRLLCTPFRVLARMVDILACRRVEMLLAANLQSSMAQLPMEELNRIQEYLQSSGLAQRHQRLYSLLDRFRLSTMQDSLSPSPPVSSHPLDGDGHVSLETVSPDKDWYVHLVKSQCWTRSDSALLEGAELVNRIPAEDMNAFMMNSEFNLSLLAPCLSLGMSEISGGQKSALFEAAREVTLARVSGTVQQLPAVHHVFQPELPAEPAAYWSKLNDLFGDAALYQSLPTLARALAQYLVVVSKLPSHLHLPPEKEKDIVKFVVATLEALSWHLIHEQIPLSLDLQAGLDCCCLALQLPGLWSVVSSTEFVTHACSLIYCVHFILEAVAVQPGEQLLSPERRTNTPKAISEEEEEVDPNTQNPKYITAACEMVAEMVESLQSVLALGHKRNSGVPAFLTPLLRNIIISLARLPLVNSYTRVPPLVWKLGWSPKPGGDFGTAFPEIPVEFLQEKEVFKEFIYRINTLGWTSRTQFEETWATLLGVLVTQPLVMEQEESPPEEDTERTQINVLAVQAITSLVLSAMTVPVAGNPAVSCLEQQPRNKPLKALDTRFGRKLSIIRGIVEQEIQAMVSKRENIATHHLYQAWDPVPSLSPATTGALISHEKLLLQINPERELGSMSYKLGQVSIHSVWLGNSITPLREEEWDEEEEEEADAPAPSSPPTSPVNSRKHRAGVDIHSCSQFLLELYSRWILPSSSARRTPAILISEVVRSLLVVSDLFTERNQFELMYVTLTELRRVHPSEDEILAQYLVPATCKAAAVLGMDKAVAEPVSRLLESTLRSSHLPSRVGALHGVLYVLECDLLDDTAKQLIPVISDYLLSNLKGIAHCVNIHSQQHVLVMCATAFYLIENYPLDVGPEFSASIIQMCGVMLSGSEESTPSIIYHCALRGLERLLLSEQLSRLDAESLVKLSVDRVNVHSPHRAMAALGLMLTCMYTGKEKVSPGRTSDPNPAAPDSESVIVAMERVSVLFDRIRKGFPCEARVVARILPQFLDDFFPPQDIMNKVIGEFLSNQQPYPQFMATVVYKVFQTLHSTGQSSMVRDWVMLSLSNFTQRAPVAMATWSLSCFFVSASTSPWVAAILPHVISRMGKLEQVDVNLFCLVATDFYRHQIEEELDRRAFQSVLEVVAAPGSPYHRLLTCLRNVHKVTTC

Take “DNAJB6b fused to mVenus-mCherry at its N-terminus (VC-DNAJB6) (from UniProt O75190-2 1-241) (natural protein)”: the FRET/donor ratio in aggregates with Q71 in series [1] was 0.6.

B1: FUS R521C fused to mVenus-mCherry at its N-terminus (VC-FUSR521C) (natural protein)
chain: MASNDYTQQATQSYGAYPTQPGQGYSQQSSQPYGQQSYSGYSQSTDTSGYGQSSYSSYGQSQNTGYGTQSTPQGYGSTGGYGSSQSSQSSYGQQSSYPGYGQQPAPSSTSGSYGSSSQSSSYGQPQSGSYSQQPSYGGQQQSYGQQQSYNPPQGYGQQNQYNSSSGGGGGGGGGGNYGQDQSSMSSGGGSGGGYGNQDQSGGGGSGGYGQQDRGGRGRGGSGGGGGGGGGGYNRSSGGYEPRGRGGGRGGRGGMGGSDRGGFNKFGGPRDQGSRHDSEQDNSDNNTIFVQGLGENVTIESVADYFKQIGIIKTNKKTGQPMINLYTDRETGKLKGEATVSFDDPPSAKAAIDWFDGKEFSGNPIKVSFATRRADFNRGGGNGRGGRGRGGPMGRGGYGGGGSGGGGRGGFPSGGGGGGGQQRAGDWKCPNPTCENMNFSWRNECNQCKAPKPDGPGGGPGGSHMGGNYGDDRRGGRGGYDRGGYRGRGGDRGGFRGGRGGGDRGGFGPGKMDSRGEHRQDCRERPY
Take B1: in “FRET or BRET”, the “FRET/donor ratio in foci” value was around 0.66.
